{"source": "paper PMC11656211", "molecular_target": "TLR4/MD2 complex on HEK293-hTLR4-MD2-CD14 cells (human) (UniProt O00206)", "note": "Ends that are not written are not given here.", "data": [{"binder": "GYYYPSDPNTFYAPPYSA (also: HiLyte Fluor 488 label, position not given here)", "note": "[HiLyte Fluor 488-labeled GK-1]", "values": [{"measurement": "uptake of GK-1-HF488 (MFI by flow cytometry after trypsin treatment), HEK293-TLR4 cells against HEK293-null cells, 1 h at 4 °C, 5 to 50 uM", "result": 5, "unit": "fold"}, {"measurement": "uptake of GK-1-HF488 (MFI by flow cytometry after trypsin treatment), HEK293-TLR4 cells against HEK293-null cells, 1 h at 37 °C, 5 to 50 uM", "result": "< 30", "unit": "fold"}]}]}
